Drawing on article PMC3459973, this text covers binding signal (SILAC ratio C/A) for one sequence.

In this series the target is TFAP2 (AP-2) (UniProt P05549). The experiment in a line: DNA pull-down, SILAC MS and immunoblot. The following applies: PBB: 150 mM NaCl, 50 mM Tris/HCl pH 8.0, 10 mM MgCl2, 0.5% NP-40, protease inhibitor; 200 ug SILAC nuclear extract, 2 h at 4 C (automated: 8 C); elution 16 mM ….
Chain of TFAP2 (AP-2) (P05549 whole entry): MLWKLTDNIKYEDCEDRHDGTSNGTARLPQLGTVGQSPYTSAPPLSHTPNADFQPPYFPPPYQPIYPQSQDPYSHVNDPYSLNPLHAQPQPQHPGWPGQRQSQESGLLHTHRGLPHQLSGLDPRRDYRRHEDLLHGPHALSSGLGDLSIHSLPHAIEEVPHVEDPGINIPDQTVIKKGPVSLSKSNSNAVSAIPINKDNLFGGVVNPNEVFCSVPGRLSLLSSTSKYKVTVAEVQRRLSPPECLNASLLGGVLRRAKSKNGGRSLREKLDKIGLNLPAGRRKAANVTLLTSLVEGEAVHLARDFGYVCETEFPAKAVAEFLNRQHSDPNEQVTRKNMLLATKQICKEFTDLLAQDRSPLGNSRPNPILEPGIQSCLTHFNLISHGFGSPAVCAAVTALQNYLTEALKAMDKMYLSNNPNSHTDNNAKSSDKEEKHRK

As for “AACAAAACTGCAGGATCGAACTGACCGCCCGGGGCACGTGTC / TTGACACGTGCCCCGGGCGGTCAGTTCGATCCTGCAGTTTTG [AP2_C]”, the binding signal (SILAC ratio C/A) came to 10.
